Each block holds one molecule with its values, some of them ahead of it.
Assays:
[1] = Indirect ELISA on microplates coated with BSA-PFOA conjugate; format: binding; details: for binding affinity to BSA-PFOA: indirect ELISA, various antibody dilutions; for response to BSA-PFOA at 1:50,000 dilution: antibody dilution 1:50,000
Method: Polyclonal rabbit antibodies to PFOA were prepared according to methods well known in the art. E. Harlow & D. Lane, Antibodies: A Laboratory Manual (1988) (published by Cold Spring Harbor Press, Cold Spring Harbor, N.Y.). These polyclonal antibodies were tested for their binding affinity to PFOA (FIG. 1A). PFOA was conjugated to bovine serum albumin by methods well known in the art. G.T. Hermanson, Bioconjugate Techniques (Academic Press, 785 pp., 1995). S.S. Wong, Chemistry of Protein Conjugation and Cross-Linking (CRC Press, 340 pp., 1991); G.T. Hermanson et al., Immobilized Affinity Ligand Techniques (Academic Press, 450 pp., 1992). Microplates were treated with BSA-PFOA conjugate and incubated. After washing with buffer, blocking solution was added followed by varying dilutions of monoclonal antibodies (mABs). The plate was then further incubated. After washing again, anti-rabbit secondary antibodies were added. A color reaction was developed using tetramethyl benzidine (TMB), and the reaction was read at 450 nm.
The results were consistent over various antibody dilutions.

[2] = Surface plasmon resonance, antibody on CM5 sensor chip; format: binding; details: for SPR signal with PFOA: PFOA between 41 ppm and 41 ppb; for type of SPR binding interaction: instant association and dissociation curve
Excerpt: Surface plasmon resonance occurs when a directed light at a specific angle of incidence excites electrons in a thin metal sheet. As a result, the electrons travel parallel to the sheet. This is related to the refractive index of the material. Even a small change alters the response, allowing SPR to be used as a techniques for detection of physical interactions between analytes. […] In this example, the antibody is bound to a sensor chip that carries a matrix of carboxymethylated dextran covalently attached to a gold surface. In this example, the chip is a CM5 sensor chip.
mAb3 (FIG. 11) and mAB5 (FIG. 12) were tested for binding with different concentrations of PFOA ([…], 10 μM, 1 μM, 0.1 μM). The concentration of PFOA tested was between ˜41 ppm and 41 ppb.

[3] = Competitive ELISA, conjugated PFOA versus free PFOA; format: binding; details: for lowest PFOA concentration detected: synthetic matrix under laboratory conditions
Method: (§1) Microplates were treated with anti-PFOA mABs. After incubation, the wells were exposed to a biotin-PFOA conjugate and free PFOA compounds, which compete for a finite number of antibody recognition sites. Next, streptavidin-HRP conjugate was added, which binds to the biotin-PFOA molecules. The resultant color reaction was measured spectrophotometrically. P. Langer et al., 78 Proc. Nat'l Acad. Sci USA 6633-37 (1981); A. Forster et al., 13 Nucleic Acids Res. 745-61 (1985); L. Riley et al., 5 DNA 333-37 (1986); M.D. Savage et al., Avidin-Biotin Chemistry: A Handbook (Pierce Chemical Co., 467 pp., 1992). The amount of signal was inversely proportional to the concentration of free-PFOA provided. This approach determined the dynamic range of antibody detection.
Antibodies mAB3 and mAB5 were then tested for dose response to PFOA using the competitive ELISA described in FIG. 1B. The assay was performed using two carrier molecules: (1) biotin (small carrier), and (2) horse radish peroxidase (HRP; large carrier). […] Also observed was the dynamic response of the assay to 0.5 ppb (500 ppt) of PFOA.
A plasmid containing the sequence for antibody mAB3 was expressed in Expi293 cells, and the resulting antibody was purified using Protein A and gel filtration chromatography, as is well known in the art. This antibody was tested for its binding affinity to PFOA using the competitive ELISA described in FIG. 1B.

[4] = Competitive ELISA, binding affinity to other PFAS compounds
Method: as §1
The mAB3 produced in vitro was also tested for its binding affinity to other PFAS compounds, including PFOS, PFHxS, and PFBA.

[5] = Competitive ELISA, specificity of binding to PFOA compared with octanoic acid; details: FIG. 5
Method: as §1
Antibodies mAB3 and mAB5 were also tested for specificity of binding to PFOA as compared to known analogs, such as OA.

[6] = Waveguide interferometry, antibody coupled to waveguide surface; format: binding; details: groundwater from a contaminated site, approximately 7.5 ppb PFOA, compared with 2 ppb PFOA signal
Method: The device combines two very sensitive methods, waveguiding and interferometry, to form waveguide interferometry technology used in rapid low-level detection sensing applications. In optical interferometry, small changes in refractive index are measured along the pathway of an optical beam of light during its propagation. As the light propagates, it generates an optical electromagnetic field, a small fraction of which-known as the evanescent field-enables detection by interacting with the changes in refractive index occurring on the waveguide cover layer. […] As PFAS is introduced to the functionalized waveguide, PFAS binding to the antibody displaces the sample solution near the waveguide surface, changing the light beam's velocity. Simultaneously, an adjacent reference beam is left unperturbed and is optically combined with the sensing beam to measure the velocity change. This creates an interference pattern that shifts as the refractive index changes, producing a corresponding change in the relative phase measurement.
Binding of PFAS binding proteins to PFAS was tested using interferometry. Specifically, binding of anti-PFOA antibody mAB5 to PFOA was measured by comparing the interferometry signal for a 1% methanol PBS buffer containing either 0 ppb PFOA (negative control; FIG. 14A) or 2 ppb PFOA (test sample; FIG. 14B). […]

B3: mAB2: rabbit anti-PFOA monoclonal antibody, heavy chain variable SEQ ID NO: 16, light chain variable SEQ ID NO: 21 (antibody, listed as Oryctolagus cuniculus, V domains shown)
VH: QSVKESEGGLFKPTDNLTLTCAVSRFSLSSYGVSWVRQAPGNGLEWIGYIYTDGSAYYASWAKSRSTITRNTNLNTVTLKMTSLTAADTATYFCARHSSGWGIDYFNVWGPGTLVTVSS
VL: AAVLTQTPSSVSAAVGGTVTINCQASQSVYNNNYLSWYQQKPGQPPKLLIYLASTLASGVPSRFSGSGSGTEFTLTISDLECDDGATYYCAGGVTSSDRPFGGGTEVVVKG
binding affinity to BSA-PFOA [1]: no significant binding affinity

B4: mAB5: rabbit anti-PFOA monoclonal antibody, heavy chain variable SEQ ID NO: 19, light chain variable SEQ ID NO: 24 (antibody, listed as Oryctolagus cuniculus, V domains shown)
VH: QSVKESEGGLFKPTDTLTLTCTASGFSLSSYGVIWVRQAPGKGLQWIGFINIYGTPSYASWAMGRSTITGNTNLNTVILKMTSLTVADTATYFCASSVGSDGYLYSSDIWGPGTLVTVSS
VL: DPVLTQTPSSVSAAVGGTVTINCQASQSVYNNKCLAWYQQKPGQPPKLLIYGASTLASGVPSRFSGSGSGTQFTLTISDLECDDAATYYCAGGYYSEIHFGGGTEVVVKG
SPR signal with PFOA [2]: concentration dependent signal | type of SPR binding interaction [2]: steady-state interaction | lowest PFOA concentration detected [3]: 0.5 ppb | interferometry signal in groundwater [6]: consistent and approximately proportional to the concentration of PFOA | response to BSA-PFOA at 1:50,000 dilution [1]: negligible | binding affinity to BSA-PFOA [1]: best binding affinity | response to PFOA versus OA [5]: 78 fold

Now from value to molecule, other results behind:

binding affinity to BSA-PFOA [1]: no significant binding affinity
B1: mAB1: rabbit anti-PFOA monoclonal antibody, heavy chain variable SEQ ID NO: 15, light chain variable SEQ ID NO: 20 (antibody, listed as Oryctolagus cuniculus, V domains shown)
VH: QSVKESEGGLFKPTDTLTLTCTASGFSLSSYGVSWVRQAPGNGLEWIGSIEDGGSAYYASWAKSRSTITSNTNLNTVTLQMTSLTAADTATYFCGSLSIGSAYPGIWGPGTLVTVSS
VL: AIVMTQTPSSKSVPVGDTVTIKCQASQSIGTRLAWFQQKPGQPPKRLIYSASTLASGVPSRFSGSGSGTQFTLTISDVVCDDAAAYYCGGYKSSSSDGIAFGGGTEVVVKG

type of SPR binding interaction [2]: steady-state interaction | binding affinity to PFOA ([3]; antibody expressed in Expi293 cells, purified using Protein A and gel filtration chromatography): about 1 ppt | binding affinity to PFOA ([3]; antibody isolated from rabbit serum): about 500 ppt | binding to PFOS and other PFAS compounds in addition to PFOA ([4]; FIG. 9): can bind | binding affinity to PFOS as compared to PFOA ([4]; purified antibody produced in vitro): 99% | binding affinity to BSA-PFOA [1]: best binding affinity | affinity to OA as compared to PFOA [5]: six-fold lower
B2: mAB3: rabbit anti-PFOA monoclonal antibody, heavy chain variable SEQ ID NO: 17, light chain variable SEQ ID NO: 22 (antibody, listed as Oryctolagus cuniculus, V domains shown)
VH: QSLEESEGGLFKPGGTLTLTCTVSGFSLNIYSISWVRQAPGKELEWIGTMSNVDATYYANWAKSRSTITRNINESTVTLKMPSLTVADTATYFCARYIYGAGYDIWGPGTLVTVSS
VL: ADIVMTQTPASVEAAVGGTVTIKCQASQSISSWLSWYQQKPGQPPKLLIYKASTLASGVPSRFKGSGSGTEYTLTISGVQCADAATYYCQSVYYSSSTNYGNTFGGGTEVVVKG
SPR signal with PFOA [2]: concentration dependent signal | lowest PFOA concentration detected [3]: 0.5 ppb | response to BSA-PFOA at 1:25,000 dilution compared with 1:5,000 ([1]; antibody dilution 1:25,000 vs 1:5,000): approximately four-fold lower | response to BSA-PFOA at 1:50,000 dilution [1]: very depressed

binding affinity to BSA-PFOA [1]: no significant binding affinity
B5: mAB4: rabbit anti-PFOA monoclonal antibody, heavy chain variable SEQ ID NO: 18, light chain variable SEQ ID NO: 23 (antibody, listed as Oryctolagus cuniculus, V domains shown)
VH: QEQLEESRGGLIKPTDTLTLTCTASGFSLSNYGINWVRQAPGEGLEWIGAIRGSGFIYYATWAKSRSTITRNTNLNTVTLKMTSLTAADTATYFCARRDGLYSAMDPWGPGTLVTVSS
VL: DPVLTQTPSSTSAAVGGTVTISCQSSDSVYKNNYLAWFQQKPGQPPKVLIYHASKLASGVPSRFSGSGSGTQFTLTISGVQCDDAATYYCLGEYSDTHVFGGGTEVVVKG

— patent publication US20250369960A1, “PER- AND POLYFLUORINATED ALKYL COMPOUND (PFAS) BINDING PROTEINS AND USES THEREOF” (Allonnia, LLC, priority 2022, published 2025)
